This is an account of results in US20150299322A1 (Dana-Farber, published 2015).

The target in assay [1] is T1, mouse RGMb (mRGMb) expressed on transfected cells (mouse, UniProt Q7TQ33 49-415).
T1 construct: whole, on cells; Also used for mRGMb in cell lysates (Western blot); also called DRAGON; 300-mRGMb cells
T1 sequence (looked up): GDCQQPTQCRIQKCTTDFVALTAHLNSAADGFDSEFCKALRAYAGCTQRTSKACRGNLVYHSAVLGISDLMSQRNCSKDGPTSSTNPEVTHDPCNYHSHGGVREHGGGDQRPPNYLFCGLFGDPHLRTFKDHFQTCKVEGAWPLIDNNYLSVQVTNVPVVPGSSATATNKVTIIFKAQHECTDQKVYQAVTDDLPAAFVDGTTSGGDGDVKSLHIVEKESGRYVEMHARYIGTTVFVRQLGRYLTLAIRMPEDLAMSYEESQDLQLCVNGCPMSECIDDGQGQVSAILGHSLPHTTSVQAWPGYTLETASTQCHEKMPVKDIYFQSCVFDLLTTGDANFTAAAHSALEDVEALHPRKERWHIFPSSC
Kind of assay: flow cytometry on mRGMb transiently transfected COS cells. As to the method: A panel of murine activated lymphocyte cDNA expression libraries were transiently transfected into COS cells using DEAE-Dextran or Lipofectamine as facilitator (Freeman et al. (1989) J. Immunol. 143:2714-2722). After 44 hours, COS cells were harvested and panned on mPD-L2-mIgG2a/IgA coated petri plates. Episomal DNA was recovered and electroporated into E. coli DH10B/P3. Spheroplast fusion was used to reintroduce the plasmids into COS cells for subsequent rounds of expression and panning. Before the second and third rounds, COS cells expressing PD-1 were removed by incubating with PD-1 mAb followed by depletion with goat anti-rat IgG magnetic beads. After the third round of panning, individual plasmids were transfected into COS cells and binding of PD-L2-Ig to RGMb was verified by flow cytometry on mRGMb transiently transfected COS cells. At least four independent mRGMb cDNA clones were isolated.
For orientation: Flow cytometry measures light scatter and fluorescence of single cells or particles in a stream.

Assay [2] has as its target T2, recombinant hRGMb-HIS (R&D) (human, UniProt Q6NW40 46-413).
T2 construct: Bought from R&D; not shown: HIS tag
T2 sequence: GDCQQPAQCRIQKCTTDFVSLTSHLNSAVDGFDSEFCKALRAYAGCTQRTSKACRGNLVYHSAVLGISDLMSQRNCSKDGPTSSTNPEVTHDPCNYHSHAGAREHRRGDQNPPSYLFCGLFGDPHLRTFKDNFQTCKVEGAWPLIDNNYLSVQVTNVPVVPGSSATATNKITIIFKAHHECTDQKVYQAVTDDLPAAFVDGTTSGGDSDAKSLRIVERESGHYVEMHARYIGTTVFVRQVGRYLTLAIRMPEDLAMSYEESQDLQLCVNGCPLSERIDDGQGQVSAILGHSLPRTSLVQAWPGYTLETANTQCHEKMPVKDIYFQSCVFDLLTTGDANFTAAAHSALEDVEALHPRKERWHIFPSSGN
Kind of assay: ELISA, coated hRGMb-HIS, PD-L2-Ig in solution. As to the method:
(§1) To examine RGMa/RGMb/RGMc and PD-L2 interaction, 96-well ELISA plates were coated with 2 or 5 μg/ml of recombinant mRGMa-HIS, mRGMb-HIS, mRGMc-HIS, or hRGMb-HIS (R&D). Then, serial dilutions of mPD-L2-hIgG1/IgA, mPD-L2-mIgG2a/IgA, hPD-L2-mIgG2a or control-Ig fusion proteins were added and incubated for 1h at 37° C. Fab₂ goat anti-hIgG-HRP (Jackson ImmunoResearch Laboratories) or rat anti-mIgG2a-HRP (BD Biosciences) at 1:1000 or 1:10000 were used for detection.

The target of assay [3] is T3, recombinant mRGMa-HIS (R&D) (mouse, UniProt Q6PCX7 48-427, limits assumed).
T3 construct: Bought from R&D; not shown: HIS tag
T3 sequence (looked up): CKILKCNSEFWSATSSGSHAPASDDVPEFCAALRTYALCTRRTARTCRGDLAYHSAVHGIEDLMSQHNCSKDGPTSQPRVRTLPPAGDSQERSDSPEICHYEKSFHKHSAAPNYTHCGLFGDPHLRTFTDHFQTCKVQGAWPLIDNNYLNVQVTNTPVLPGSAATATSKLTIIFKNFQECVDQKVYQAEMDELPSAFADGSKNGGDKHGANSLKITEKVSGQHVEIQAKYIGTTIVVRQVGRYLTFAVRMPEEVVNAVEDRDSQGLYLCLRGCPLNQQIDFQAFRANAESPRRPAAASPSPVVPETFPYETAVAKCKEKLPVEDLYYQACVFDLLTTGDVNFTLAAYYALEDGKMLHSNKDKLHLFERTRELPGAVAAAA
Kind of assay: ELISA, coated mRGMa-HIS. The procedure: as §1

The target of assay [4] is T4, recombinant mRGMb-HIS (R&D) (mouse, UniProt Q7TQ33 49-415, limits assumed).
T4 construct: Bought from R&D; not shown: HIS tag
T4 sequence (looked up): T1 sequence (looked up)
Description: ELISA, coated BMP-2/4, mRGMb-HIS and PD-L2-Ig at 10 ug/ml, detection of the hIgG part. As to the method:
To determine if RGMb binds PD-L2 and BMP-2/4 simultaneously, 96-well ELISA plates were coated with BMP-2/4 as above. mPD-L2-hIgG1/IgA, mPD-L2-hIgG (R&D), mPD-L1-hIgG (R&D) or control-Ig fusion proteins at 10 μg/ml were preincubated with 10 μg/ml mRGMb-HIS (R&D) or buffer alone for 15 min. at room temperature (RT), then added to the plates and incubated for 1h at 37° C. Alternatively, 10 μg/ml mRGMb-HIS (R&D) or buffer alone was added first to the plates and incubated for 1h at 37° C. After wash, mPD-L2-Ig or control-Ig fusion proteins were added and incubated for 1h at 37° C. Fab₂ goat anti-hIgG-HRP (Jackson ImmunoResearch Laboratories) at 1:10000 was used for detection.
To test if RGMb can bind both PD-L2 and BMP at the same time, an ELISA was performed to analyze the binding capacity of PD-L2-Ig fusion protein to immobilized BMP-2/4 in the presence or absence of RGMb. PD-L2 could not directly bind to BMP-2/4, but in the presence of RGMb could form a complex with BMP when RGMb and PD-L2-Ig were added simultaneously (FIG. 4A-4B) or sequentially to BMP-2/4.
A general note: ELISA stands for enzyme-linked immunosorbent assay.

For assay [5], the target named is T5, recombinant mRGMc-HIS (R&D) (mouse, UniProt Q7TQ32 33-393, limits assumed).
T5 construct: Bought from R&D; also called hemojuvelin; not shown: HIS tag
T5 sequence (looked up): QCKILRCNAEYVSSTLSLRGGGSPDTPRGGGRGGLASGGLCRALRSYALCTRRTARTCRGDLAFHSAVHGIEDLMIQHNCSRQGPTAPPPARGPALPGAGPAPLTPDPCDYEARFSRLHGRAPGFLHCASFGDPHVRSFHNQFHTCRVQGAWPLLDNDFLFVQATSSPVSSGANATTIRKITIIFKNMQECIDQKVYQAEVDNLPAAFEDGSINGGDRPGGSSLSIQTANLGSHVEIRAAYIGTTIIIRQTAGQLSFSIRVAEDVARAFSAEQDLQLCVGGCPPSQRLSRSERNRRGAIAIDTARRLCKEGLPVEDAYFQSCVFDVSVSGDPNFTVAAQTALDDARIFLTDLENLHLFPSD
Kind of assay: ELISA, coated mRGMc-HIS. The procedure:
as §1

B1: mPD-L2-Ig fusion protein (construct not told at the result) (Fc fusion, mouse, UniProt Q9WUL5 20-221, looked up)
chain: LFTVTAPKEVYTVDVGSSVSLECDFDRRECTELEGIRASLQKVENDTSLQSERATLLEEQLPLGKALFHIPSVQVRDSGQYRCLVICGAAWDYKYLTVKVKASYMRIDTRILEVPGTGEVQLTCQARGYPLAEVSWQNVSVPANTSHIRTPEGLYQVTSVLRLKPQPSRNFSCMFWNAHMKELTSAIIDPLSRMEPKVPRTW
notes: extracellular domain; not shown: Ig part: the methods name mPD-L2-hIgG1/IgA, mPD-L2-mIgG2a/IgA and mPD-L2-hIgG (R&D)
On to B1, for which the binding result in assay [1] was “binds”; in assay [2], “binds”; in assay [3], “no binding”; in assay [4], “binds”; in assay [5] it was “no binding”.
